# Test results: US20060134709A1
# Like-named read-outs stand apart in the source and are kept apart here.
# Experiments:
# [1] = target: FcγRIIB-Fc fusion protein (human) (UniProt P31994); assay: BIAcore
# soluble FcγRIIB (human) = soluble FcγRIIB (human) (UniProt P31994); assay: ELISA
# [2] = target: soluble monomeric FcγRIIIA-linker-AVITAG (human) (UniProt P08637); assay: ELISA
# [3] = target: soluble monomeric FcγRIIIA-linker-AVITAG (human) (UniProt P08637); assay: BIAcore
# [4] = target: FcγRIIB-Fc fusion protein (human) (UniProt P31994); assay: BIAcore: ch4-4-20 captured on BSA-FITC, FcγRIIB-Fc at two concentrations, separate fits, average of the two
# [5] = target: FcγRIIB-Fc fusion protein (human) (UniProt P31994); assay: BIAcore; remark: listed apart in the source
# [6] = target: FcγRIIB-Fc fusion protein (human) (UniProt P31994); assay: ELISA
# monomeric human IgG [7] = assay: direct ELISA on plate-coated human IgG, detection with DJ130c and anti-mouse peroxidase
# monomeric human IgG [8] = assay: ELISA
Substance,fold increase vs wt (soluble FcγRIIB (human)) [x],fold increase vs wt [2] [x],further results
ch4-4-20 R292G (antibody),,,Koff WT/Mut [1]: 0.67
"ch4-4-20 S298N, K360R, N361D (antibody)",,,Koff WT/Mut [1]: 0.67
"ch4-4-20 S298N, S407R (antibody)",7,0.5,
"ch4-4-20 S375C, P396L (antibody)",4.5,1.5,
"ch4-4-20 S400F, P396L (antibody)",4.7,1.5,
ch4-4-20 S400P (antibody),6,1,
ch4-4-20 S407I (antibody),4,0.5,
"ch4-4-20 S408I, V215I, V125L (antibody)",0.75,0.5,
"ch4-4-20 S415I, L251F (antibody)",0.75,0.5,
"ch4-4-20 T215P, K274N, A287G, K334N, L365V, P396L (antibody)",4,2,
"ch4-4-20 T223I, T256S, L406F (antibody)",6,0.25,
ch4-4-20 T225S (antibody),,,fold decrease vs wt (soluble FcγRIIB (human)): 0.5 x; fold decrease vs wt [2]: 0.25 x
"ch4-4-20 T250S, P396L (antibody)",6.8,1.5,
"ch4-4-20 V215I, K290V, P396L (antibody)",4.6,2.2,
"ch4-4-20 V240A, P396L (antibody)",4.2,1.3,
"ch4-4-20 V240I, V281M (antibody)",,,fold decrease vs wt (soluble FcγRIIB (human)): 0.25 x; fold decrease vs wt [2]: 0.25 x
"ch4-4-20 V273I, K326E, L328I, P396L (antibody)",10.8,1.3,
"ch4-4-20 V282E, V369I, L406F (antibody)",7,0.5,
"ch4-4-20 V303I, P396L (antibody)",4,1.1,
"ch4-4-20 V305L, P396L (antibody)",5.5,1.3,
"ch4-4-20 V323I, P396L (antibody)",8.2,1.1,
"ch4-4-20 V348M, K334N, F275I, Y202M, K147T (antibody)",0.75,0.5,
ch4-4-20 V379M (antibody),,,Kd [3]: 160 nM
"ch4-4-20 V379M, P396L (antibody)",5.6,1.9,
"ch4-4-20 V427A, P396L (antibody)",4.7,1.9,
"ch4-4-20 Y319F, P352L, P396L (antibody)",,,Kd [1]: 55.7 nM; Kd [3]: 125 nM
"chimeric 4-4-20 antibody, wild type Fc",,,"koff [4]: 0.0847 s⁻¹; Kd [5]: 61.4 nM; koff [5]: 0.085 s⁻¹; ELISA, OD [6]: 0.4 OD; ELISA, OD [2]: 0.5 OD; Kd [1]: 94 nM; koff [1]: 0.094 s⁻¹; Kd [3]: 198 nM"
soluble FcγRIIIA tetrameric complex (from UniProt P08637 17-203) (receptor),,,EC50 (read off the curve) (monomeric human IgG [7]): 1 µg/mL; fold avidity vs monomeric receptor (monomeric human IgG [8]): 8 to 10 fold
